# T1: FAS-R (Homo sapiens, UniProt P25445)
# T1 construct: the FAS-IC extends-from amino acid residues 175-319 of the intact FAS-R; expressed in transfected cells; host or cells: SFY526 yeast
# T1 sequence (P25445 191-335): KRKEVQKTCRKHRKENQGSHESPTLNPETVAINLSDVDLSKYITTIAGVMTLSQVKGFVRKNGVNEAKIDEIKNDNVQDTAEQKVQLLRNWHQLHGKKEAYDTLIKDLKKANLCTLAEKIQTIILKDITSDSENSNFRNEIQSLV
# Target: T1, FAS-R
# Test: Two-hybrid β-galactosidase filter assay (FIG. 5), binding to FAS-R
# Conditions: two hybrid test
# Procedure: The yeast two-hybrid test was further applied to evaluate the specificity of binding of MACH to MORT-1, in particular, to define the region in MORT-1 to which MACH binds, as well as to determine which of the MACH ORFs interacts with MORT-1, the procedures being as set forth herein above in Examples 1 and 2. Briefly, various MORT-1 and MACH constructs were prepared for testing the interaction of the proteins encoded by the Gal4 DNA-binding domain and activation domain constructs within transfected SFY526 yeast cells as assessed by the β-galactosidase expression filter assay. The DNA-binding domain constructs were prepared in pGBT9 vectors and the activation domain constructs were prepared in pGAD-GM vectors. […] In the assay, the development of color was determined, where the greater the color development, the greater the interaction between the constructs encoded by the DNA-binding domain and activation domain; Color development was depicted by symbols, where “+++” and “+” indicate the development of a strong color within 30 and 90 min. of the assay, respectively, and “−−−” indicates the lack of development of color within 24 hrs. of the assay. […]
# In FIG. 5, there is shown the results of the interaction of MORT-1 and MACH within transfected yeast cells. […] Their interaction was assessed by a β-galactosidase expression filter assay as described in Boldin et al (1995b). […]
molecule,measurement,value
"MACHβ1: MACH isoform, cDNA SEQ ID NO: 4, amino acid SEQ ID NO: 5; lacks the CED3/ICE homology region (protein) MDFSRNLYDIGEQLDSEDLASLKFLSLDYIPQRKQEPIKDALMLFQRLQEKRMLEESNLSFLKELLFRINRLDLLITYLNTRKEEMERELQTPGRAQISAYRVMLYQISEEVSRSELRSFKFLLQEEISKCKLDDDMNLLDIFIEMEKRVILGEGKLDILKRVCAQINKSLLKIINDYEEFSKERSSSLEGSPDEFSNDFGQSLPNEKQTSGILSDHQQSQFCKSTGESAQTSQH",binding to FAS-R in transfected yeast,unable to bind
